Data published in patent US20120237948A1 (published 2012).
Square brackets hold non-standard residues; d marks the D form. Ends that are not written are not given here. Hyp = O=C(O)[C@@H]1C[C@@H](O)CN1

Legend:
Test in all cases: competitive ELISA
[1] = molecular target: T1, peptide Gly-Pro-Pro-Gly-Pro-Gln-Gly-Leu-Ala-Gly-Gln-Arg (SEQ ID NO: 16)
T1 peptide: GPPGPQGLAGQR

[2] = molecular target: T2, peptide Gly-Glu-Pro-Gly-Asp-Asp-Gly-Pro-Ser-Gly-Ala-Glu-Gly-Pro-Pro-Gly-Pro-Gln-Gly (SEQ ID NO: 18)
T2 peptide: GEPGDDGPSGAEGPPGPQG

[3] = molecular target: T3, neoepitope peptide Gly-Pro-Gln-Gly (SEQ ID NO: 15)
T3 peptide: GPQG

[4] = molecular target: neoepitope peptide Asp-Gly-Pro-Ser-Gly-Ala-Glu-Gly-Pro-HyP-Gly-Pro-Gln-Gly (SEQ ID NO: 14) (hydroxyproline (HyP) at position 10 of the peptide (position 971))
[5] = molecular target: T4, peptide Gly-Glu-Pro-Gly-Asp-Asp-Gly-Pro-Ser-Gly-Ala-Glu-Gly-Pro-HyP-Gly-Pro-Gln-Gly (SEQ ID NO: 17)
T4 peptide: GEPGDDGPSGAEGP[Hyp]GPQG

IC50 [1]: 20200 nM
IC50 [2]: 22 nM
IC50 [3]: 99000 nM
IC50 [4]: 40 nM
IC50 [5]: 20 nM
B1: anti-neoepitope antibody 20A10 (antibody, V domains shown)
VH: QIQLVQSGPELKEPGETVRISCKASGYTFTKYGINWVKQAPGKGLEWMAWINTYSGMTTYADDFKGRFAFSLETSANTAYLQINHLKNDDTATYFCARSLGYDYGGFAYWGQGTLVTVSA
VL: DVLLTQTPLSLPVSLGDQAFISCRSGQTLVHDNENTYFHWYLQKPGQSPKLLIYKISNRFSGVPDRFSGSGSGTDFTLKISRVEPEDLGIYFCSQNTHVPFTFGSGTKLEIKR
